Laboratory results reported in patent US10435681B2, “Compounds and methods for stabilizing thrombin activity” (Omrix Biopharmaceuticals Ltd., priority 2013, dated 2019).

Columns and labels:
Type in all cases: biochemical
thrombin [1] = molecular target: T1, thrombin (Homo sapiens, UniProt P00734); test: Thrombin inhibition testing: clotting activity of 10 IU/ml thrombin towards fibrinogen in the presence of the additive; details: 10 IU/ml thrombin
T1 construct: yields the active alpha thrombin molecule which is a 295 amino acid polypeptide (human) composed of a heavy and light chain
Procedure: (§1) Thrombin activity was assessed by clotting time measurements using STart4 Coagulation Instrument (DIAGNOSTICA STAGO™, Asnieres sur Seine, France). The assay is a modification of the European Pharmacopoeia Assay procedure, 1997, 0903, p. 858. Briefly, a calibration curve was prepared by mixing thrombin standard with a fibrinogen solution of 0.1% fibrinogen content (Enzyme Research Laboratories, Ind., USA). Thrombin concentration in the different tested samples was then calculated from the calibration curve by their clotting time (the concentration was extrapolated from the calibration curve).
For inhibition testing, the clotting activity of 10 IU/ml thrombin was measured in the presence or absence of peptides.
The assay was carried out as described in Example 1.

thrombin [2] = molecular target: T1, thrombin; test: Thrombin stability testing: remaining clotting activity of 1000 IU/ml liquid thrombin after storage at 37° C.; details: 0.5 mM peptide, 1000 IU/ml thrombin; for stabilization of thrombin activity (in words): 37° C., 0, 3 and 7 days
Procedure: Aqueous liquid thrombin, in its purified and concentrated form 1000 international units IU/ml may undergo autolysis at room temperature causing a significant loss of activity e.g. towards a heterologous substrate. E.g. thrombin activity towards a heterologous substrate is reduced when a liquid thrombin formulation is incubated at room temperature for prolonged periods of time (e.g. 72 to 144 hours), inter alia, due to autolytic degradation. The decrease of thrombin activity towards a heterologous substrate in aqueous liquid solution can be assessed by measuring thrombin activity after prolonged periods of time and under permissive temperature (e.g. 37° C.). In the following experiments, the effect of a peptide on the stability of thrombin was studied under different conditions.
Aqueous liquid purified and concentrated thrombin (1000 IU/ml; equivalent to about 10 μM) was aliquoted and placed in a 37° C. incubator for 3 days (72 hours), 7 days (168 hours) and 14 days (336 hours). Prior to incubation, thrombin samples were spiked with indicated amounts of different tested peptides or with a control thrombin inhibitor: benzamidine or arginine *HCl (“arginine”). Specific peptides, their concentrations, and thrombin inhibitors used are indicated in each Example. Following the incubation period, the samples were frozen at −80° C. until testing the thrombin activity. Just before thrombin activity assay testing, all the samples were thawed and 100-fold diluted into a dilution buffer (0.4% tri-sodium citrate di-hydrate, 0.9% sodium chloride and 1% BSA, pH=7.5) to bring the thrombin concentration in the sample to that within the specifications of the assay (4-10 IU/ml) and to dilute the tested peptides in the sample to a negligible concentration.
as §1
For stability testing of 1000IU/ml thrombin following storage with or without peptides, testing was carried out as described above. Dilutions (1:100) were carried out before measuring the activity.
All of these peptides (“mutant gamma loop peptides” identified in Example 3, random peptides, thrombin derived peptides, and “gamma loop binding peptides” mentioned above) were tested for their ability to stabilize thrombin activity at a concentration of 0.5 mM as described in Example 2.

thrombin [3] = molecular target: T1, thrombin; test: as above; details: 1000 IU/ml thrombin

effect on thrombin activity (in words) (thrombin [1]; 0.2 mM peptide): not significantly affected | remaining thrombin activity in presence of peptide (thrombin [1]; 0.5 mM peptide, FIG. 2D): about 80% | stabilization of thrombin activity (in words) (thrombin [3]; 0.1 mM peptide, 144 hours at 37° C.): stabilization detected | stabilization of thrombin activity (in words) (thrombin [3]; 0.2 mM peptide, 72 hours at 37° C.): already evident
Sequence: GNLKETWTANVGKGQPS [SEQ ID NO:2, gamma loop peptide with flanking amino acids on N- and C-termini]
stabilization of thrombin activity (in words) (thrombin [2]): capable of stabilizing liquid aqueous thrombin | stabilization of thrombin activity (in words) (thrombin [2]; listed as SEQ ID NO: 2): efficient stabilization of thrombin activity | thrombin stability (in words) (thrombin [2]; 72 and 144 hours at 37° C., FIG. 2C): an increase in thrombin stability was observed
